Assay results published in patent EP2078752A2 (LUDWIG INSTITUTE FOR CANCER RESEARCH, dated 2009).

Tests used:
Assay in all cases: affinity cross-linking of 125I-activin A then immunoprecipitation, COS-1 cells co-transfected with ActR-II
[1] = biological target: T1, human ALK-5 (clone EMBLA), TGF-β type I receptor (human, UniProt P36897 25-503)
T1 construct: Expressed from cDNA in COS-1 cells and PAE cells (PAE/TβR-I), or endogenous in human cell lines and HUVEC; also called hALK-5; TβR-I
T1 sequence: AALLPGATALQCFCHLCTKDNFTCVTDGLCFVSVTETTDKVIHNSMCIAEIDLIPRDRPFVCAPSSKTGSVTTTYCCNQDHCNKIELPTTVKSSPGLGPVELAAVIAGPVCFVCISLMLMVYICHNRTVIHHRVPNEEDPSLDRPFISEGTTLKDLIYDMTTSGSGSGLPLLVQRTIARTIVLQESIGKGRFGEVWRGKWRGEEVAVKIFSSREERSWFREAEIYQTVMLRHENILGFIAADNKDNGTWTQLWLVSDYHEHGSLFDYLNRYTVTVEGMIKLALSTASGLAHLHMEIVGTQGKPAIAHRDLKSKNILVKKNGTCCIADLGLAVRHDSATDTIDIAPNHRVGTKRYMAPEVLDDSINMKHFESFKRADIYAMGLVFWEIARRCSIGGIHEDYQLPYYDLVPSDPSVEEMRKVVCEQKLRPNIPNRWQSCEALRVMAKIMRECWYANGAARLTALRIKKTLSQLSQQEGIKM

human ALK-1 (clone HP57) = biological target: T2, human ALK-1 (clone HP57) (human, UniProt P37023 22-503)
T2 construct: Expressed from cDNA in COS-1 cells, or endogenous in HUVEC; also called hALK-1
T2 sequence (P37023 22-503 S172T limits assumed): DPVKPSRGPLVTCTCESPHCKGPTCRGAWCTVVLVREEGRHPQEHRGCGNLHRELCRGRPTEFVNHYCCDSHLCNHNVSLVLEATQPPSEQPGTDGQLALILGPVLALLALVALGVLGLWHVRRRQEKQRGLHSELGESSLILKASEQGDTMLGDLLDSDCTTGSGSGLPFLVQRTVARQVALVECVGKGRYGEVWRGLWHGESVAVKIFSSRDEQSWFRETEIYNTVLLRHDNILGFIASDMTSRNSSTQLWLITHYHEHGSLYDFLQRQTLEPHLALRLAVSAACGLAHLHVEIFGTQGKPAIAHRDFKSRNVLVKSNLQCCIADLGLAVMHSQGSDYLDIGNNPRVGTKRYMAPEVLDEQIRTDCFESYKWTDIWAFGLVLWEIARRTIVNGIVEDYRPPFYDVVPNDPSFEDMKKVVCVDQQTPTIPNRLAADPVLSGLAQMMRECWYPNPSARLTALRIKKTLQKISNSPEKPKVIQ

mouse ALK-6 (clone ME-6) = biological target: T3, mouse ALK-6 (clone ME-6) (mouse, UniProt P36898 14-502)
T3 construct: Expressed from cDNA in COS-1 cells; also called mALK-6; BMPR-IB
T3 sequence (P36898 14-502 limits assumed): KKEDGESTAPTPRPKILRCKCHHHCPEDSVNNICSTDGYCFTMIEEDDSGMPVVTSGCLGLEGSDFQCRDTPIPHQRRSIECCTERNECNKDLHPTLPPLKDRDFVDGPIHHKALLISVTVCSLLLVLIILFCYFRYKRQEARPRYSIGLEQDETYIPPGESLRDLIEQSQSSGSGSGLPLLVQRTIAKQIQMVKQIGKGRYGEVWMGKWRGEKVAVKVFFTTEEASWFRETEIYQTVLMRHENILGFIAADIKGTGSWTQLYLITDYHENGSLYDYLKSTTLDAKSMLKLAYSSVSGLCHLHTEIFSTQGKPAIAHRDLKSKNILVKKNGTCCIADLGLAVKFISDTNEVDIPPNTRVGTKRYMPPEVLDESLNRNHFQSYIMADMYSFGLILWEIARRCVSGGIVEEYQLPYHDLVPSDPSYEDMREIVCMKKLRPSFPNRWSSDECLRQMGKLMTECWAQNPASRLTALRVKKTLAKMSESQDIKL

Measured: binding result

B1: recombinant human activin A, iodinated (^125I-activin A) (ligand, UniProt P08476 311-426, looked up)
chain: GLECDGKVNICCKKQFFVSFKDIGWNDWIIAPSGYHANYCEGECPSHIAGTSGSSLSFHSTVINHYRMRGHSPFANLKSCCVPTKLRPMSMLYYDDGQNIIKKDIQNMIVEECGCS
modifications: 125I-iodinated by the chloramine T method
notes: Recombinant ligand
binds: [1] | human ALK-1 (clone HP57) | mouse ALK-6 (clone ME-6)
